According to patent US20100291638:

Columns and labels:
[1] = system: T1, DNA polymerase clone 74 (uncultured hot spring virus (Great Boiling Spring)); settings: dNTP incorporation; background <500
T1 sequence: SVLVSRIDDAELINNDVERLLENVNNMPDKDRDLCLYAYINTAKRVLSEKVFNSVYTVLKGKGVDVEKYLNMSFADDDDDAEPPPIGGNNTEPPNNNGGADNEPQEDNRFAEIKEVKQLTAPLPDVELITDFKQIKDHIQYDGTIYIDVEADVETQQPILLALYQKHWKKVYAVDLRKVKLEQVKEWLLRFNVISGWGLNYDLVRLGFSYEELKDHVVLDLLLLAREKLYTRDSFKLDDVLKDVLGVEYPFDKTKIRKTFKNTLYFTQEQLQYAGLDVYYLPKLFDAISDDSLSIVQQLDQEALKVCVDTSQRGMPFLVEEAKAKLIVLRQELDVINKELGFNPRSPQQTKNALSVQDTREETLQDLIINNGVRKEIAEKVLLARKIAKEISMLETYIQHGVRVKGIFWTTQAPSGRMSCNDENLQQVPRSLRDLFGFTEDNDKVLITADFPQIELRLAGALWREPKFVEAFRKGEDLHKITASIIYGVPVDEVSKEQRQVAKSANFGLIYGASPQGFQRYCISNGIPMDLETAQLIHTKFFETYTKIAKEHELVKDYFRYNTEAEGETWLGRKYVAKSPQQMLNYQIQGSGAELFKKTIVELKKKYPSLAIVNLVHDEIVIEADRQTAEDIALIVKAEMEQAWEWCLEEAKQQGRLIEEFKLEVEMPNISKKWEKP

[2] = system: T2, DNA polymerase 3173 (uncultured hot spring virus (Octopus Spring)); settings: dNTP incorporation, 60 C, 2 mM MgSO4; background <100 cpm
T2 sequence: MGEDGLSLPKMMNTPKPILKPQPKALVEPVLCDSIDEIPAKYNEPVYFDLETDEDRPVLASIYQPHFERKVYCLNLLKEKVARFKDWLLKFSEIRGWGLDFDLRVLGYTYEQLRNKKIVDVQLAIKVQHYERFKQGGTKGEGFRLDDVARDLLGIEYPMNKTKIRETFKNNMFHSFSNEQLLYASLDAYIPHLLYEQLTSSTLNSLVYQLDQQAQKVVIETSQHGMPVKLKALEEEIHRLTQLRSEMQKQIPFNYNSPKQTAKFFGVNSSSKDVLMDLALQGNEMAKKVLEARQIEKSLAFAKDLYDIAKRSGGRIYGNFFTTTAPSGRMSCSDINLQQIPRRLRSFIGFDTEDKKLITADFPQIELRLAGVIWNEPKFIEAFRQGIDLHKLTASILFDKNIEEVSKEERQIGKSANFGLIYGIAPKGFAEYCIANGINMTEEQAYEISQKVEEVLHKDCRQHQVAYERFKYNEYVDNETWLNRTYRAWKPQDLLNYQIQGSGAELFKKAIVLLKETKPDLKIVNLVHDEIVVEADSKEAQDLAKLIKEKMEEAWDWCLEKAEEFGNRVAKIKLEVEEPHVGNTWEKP

For activated calf thymus DNA, the activity [1] was 47400 cpm and the activity [2] was over 1000 cpm.
